In publication PMC11241748, “DNA Repair Protein XRCC1 Stimulates Activity of DNA Polymerase λ under Conditions of Microphase Separation”:

Molecular target: XRCC1 (UniProt P18887 1-633)
Assay: DLS (DNA-induced higher-order assembly); elevated DNA concentration; Rh ~135 to ~740 nm vs 6.7 nm without DNA; DLS and microscopy buffer not given in the material; activity assay: 50 mM Tris-HCl pH 7.5, 5 mM Mg2+, 0.5 mM DTT, 0.25 mg/mL BSA, 37 °C. Kd values in Table 1 a
Settings: protein: recombinant; tags: His-tag; chain copies: 2; label: 5'-32P on upstream strand as printed; 1-nt gap (template G) between strands 1 and 2, both paired to strand 3; blunt outer ends

B1: gap-DNA (dsDNA)
DNA 1: GGCGATTAAGTTGGG
DNA 2: AACGTCAGGGTCTTCC
DNA 3: GGAAGACCCTGACGTTGCCCAACTTAATCGCC
modifications: 5'-phosphate on downstream strand (5' margin of gap)
B1: binds.
